Reference: patent US20220041711A1 (NGM BIOPHARMACEUTICALS, published 2022)
Where two headings read alike, the source gives them in different places.

What was measured:
[1] = target: T1, mouse LAIR-1 (form in the assay not stated) (mouse, UniProt Q8BG84 22-144, limits assumed); assay: SPR (Biacore)
T1 sequence: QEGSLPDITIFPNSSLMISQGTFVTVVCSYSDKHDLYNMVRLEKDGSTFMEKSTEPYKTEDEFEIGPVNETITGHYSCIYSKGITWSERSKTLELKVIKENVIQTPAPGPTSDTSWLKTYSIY

[2] = target: T2, human LAIR-1-CD3ζ chimeric receptor on NFAT-GFP reporter cells (human, UniProt P20963 31-164, limits assumed); assay: cell-based or functional assay
human LAIR-1-Fc = target: T3, human LAIR-1-Fc (human, UniProt Q6GTX8 22-165); assay: ELISA blocking: plate coated with 5 µg/mL human collagen type 1, antibody titrated, 1 µg/mL biotinylated human LAIR-1-Fc, streptavidin-HRP, OD650
T3 construct: also called biotinylated human LAIR-1-Fc; not shown: a Fc region
T3 chain: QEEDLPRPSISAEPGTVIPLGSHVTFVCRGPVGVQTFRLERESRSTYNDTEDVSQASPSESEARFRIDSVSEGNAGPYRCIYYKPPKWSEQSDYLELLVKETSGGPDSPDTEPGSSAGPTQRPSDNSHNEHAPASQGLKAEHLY

[3] = target: T2, human LAIR-1-CD3ζ chimeric receptor on …; assay: cell-based or functional assay; remark: listed apart in the source
[4] = target: T4, cyno LAIR-1-CD3ζ chimeric receptor on NFAT-GFP reporter cells (cynomolgus monkey; human); assay: cell-based or functional assay
[5] = target: T2, human LAIR-1-CD3ζ chimeric receptor on …; assay: cell-based or functional assay; remark: listed apart in the source
[6] = target: T4, cyno LAIR-1-CD3ζ chimeric receptor on …; assay: cell-based or functional assay; remark: listed apart in the source
[7] = target: T1, mouse LAIR-1 (form in the assay not …); assay: not described
human LAIR-1-ECD = target: T5, human LAIR-1-ECD (human, UniProt Q6GTX8 22-165); assay: SPR (Biacore) as in Example 2
T5 construct: Recombinant, expressed in mammalian cells; also called extracellular region of human LAIR-1
T5 chain: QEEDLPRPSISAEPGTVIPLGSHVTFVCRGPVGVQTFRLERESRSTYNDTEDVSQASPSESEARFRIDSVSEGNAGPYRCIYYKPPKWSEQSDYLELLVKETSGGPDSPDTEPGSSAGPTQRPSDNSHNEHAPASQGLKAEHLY

| Binder | Kd [1] [nM] | koff [1] [s⁻¹] | kon [1] [M⁻¹ s⁻¹] | IC50 (read off the curve): % GFP+ human LAIR-1 reporter cells on coated MARCO-his [2] [nM] | IC50 (read off the curve): % GFP+ human LAIR-1 reporter cells on coated collagen 1 [2] [nM] | IC50 (read off the curve): % GFP+ human LAIR-1 reporter cells on coated collagen 4 [2] [nM] | IC50 (read off the curve) (human LAIR-1-Fc) [nM] | IC50 (read off the curve): % GFP+ human LAIR-1 reporter cells on polymerized collagen matrix [3] [nM] | IC50 (read off the curve): % GFP+ cyno LAIR-1 reporter cells on polymerized collagen matrix [4] [nM] | IC50 (read off the curve): % GFP+ human LAIR-1 reporter cells on coated MARCO-his [5] [nM] | IC50 (read off the curve): % GFP+ human LAIR-1 reporter cells on coated collagen 1 [5] [nM] | IC50 (read off the curve): % GFP+ human LAIR-1 reporter cells on coated collagen 4 [5] [nM] | IC50 (read off the curve): % GFP+ cyno LAIR-1 reporter cells on coated MARCO-his [6] [nM] | IC50 (read off the curve): % GFP+ cyno LAIR-1 reporter cells on coated collagen 1 [6] [nM] | IC50 (read off the curve): % GFP+ cyno LAIR-1 reporter cells on coated collagen 4 [6] [nM] | binding result [7] | Kd (human LAIR-1-ECD) [nM] | koff (human LAIR-1-ECD) [s⁻¹] | kon (human LAIR-1-ECD) [M⁻¹ s⁻¹] |
| --- | --- | --- | --- | --- | --- | --- | --- | --- | --- | --- | --- | --- | --- | --- | --- | --- | --- | --- | --- |
| ch43H2 (antibody, V domains shown, also called purified ch43H2) VH: EVQLVESGGGLVQPGRSLKVSCAASGFTFSNYGIHWIRQAPTKGLEWVASISPSGRSTYFRDSVKGRFTISRDNAKNTLYLQLDSLRSEDTATYYCATGINYSSFDYWGQGVMVTVSS VL: DIVMTQSPTSMSISVGDRVTMNCKASQNVGSHVDWYQQKTGQSPKLLISTASNRYTGVPDRFTGSGSGTDFTFTINNMQTEDLAVYYCMQSNSYPPTFGGGTKLELK | 1.1 | 0.00057 | 530000 |  |  |  |  |  |  |  |  |  |  |  |  |  |  |  |  |
| anti-LAIR-1 antibody ch57D12 (antibody, V domains shown, The prefix 'ch' is not defined) VH: QVQLQQSGAELARPGASVNLSCRASGYSFTSFGISWVKQRTGQGLEWIGEIYPRSDNTFYNEKFKGKATLTADKSSSTAYMELRSLTSEDSAVYFCARHFGSSSFDYWGQGTTLTVSS VL: ENVLTQSPPIMAASLGQKVTMTCSASSSVSSIYFHWYQQKSGTSPKPLIHRASNLASGVPARFSGSGSGTSYSLTISSVEAEDDATYYCQQWSGYPLTFGGGTKLEIK |  |  |  | ~0.2 | ~0.7 | ~0.4 | ~5 | ~0.3 | ~1 | ~0.3 | ~0.3 | ~0.2 | ~1 | ~2 | ~0.8 |  |  |  |  |
| humanized anti-LAIR-1 antibody Hz62G10.v1 (antibody, human IgG1, kappa, N297G, V domains shown, Humanized 62G10) VH: EVQLVESGGGLVKPGGSLRLSCAASGFTFNINAMNWVRQAPGKGLEWVARIRTKNNNFATYYADSVKDRFTISRDDSKNTLYLQMNSLKTEDTAVYYCVRGPYFDYWGQGTLVTVSS VL: DIQMTQSPSSLSASVGDRVTITCLASQTIGTWLAWYQQKPGKAPKLLIYAATSLADGVPSRFSGSGSGTDFTLTISSLQPEDFATYYCQQLYSTPYTFGGGTKVEIKR |  |  |  |  |  |  | ~3 | ~0.03 | ~0.2 | ~0.05 | ~0.04 | ~0.03 | ~0.2 | ~0.4 | ~0.2 | no binding | 1.1 | 0.00079 | 700000 |
